From patent US20250171562A1
Numbering of substitutions follows the chain as printed. In names and notes the source's numbering stands.

B1: CIgE4A1A1(GS3) (Fc fusion)
chain 1: GPPCPPCPAPEFLGGPSVFLFPPKPKDTLMISRTPEVTCVVVDVSQEDPEVQFNWYVDGVEVHNAKTKPREEQFNSTYRVVSVLTVLHQDWLNGKEYKCKVSNKGLPSSIEKTISKAKGQPREPQVYTLPPCQEEMTKNQVSLWCLVKGFYPSDIAVEWESNGQPENNYKTTPPVLDSDGSFFLYSRLTVDKSRWQEGNVFSCSVMHEALHNHYTQKSLSLSLGKGGGGSGGGGSGGGGSEVQLLESGGGLVQPGGSLRLSCAASGFTFGNYDMAWVRQAPGKRPEWVSSIDTGGDITHYADSVKGRFTISRDNAKNTLYLQMNSLRPEDTAVYWCATDEEYALGPNEFDYYGQGTLVTVSS
chain 2: B1 chain 1 with Y127C, C132S, W144S, L146A, Y185V
B2: CIgG4B3A1(RS) (Fc fusion)
chain 1: GPPCPPCPAPEFLGGPSVFLFPPKPKDTLMISRTPEVTCVVVDVSQEDPEVQFNWYVDGVEVHNAKTKPREEQFNSTYRVVSVLTVLHQDWLNGKEYKCKVSNKGLPSSIEKTISKAKGQPREPQVYTLPPCQEEMTKNQVSLWCLVKGFYPSDIAVEWESNGQPENNYKTTPPVLDSDGSFFLYSRLTVDKSRWQEGNVFSCSVMHEALHNHYTQKSLSLSLGKRSDVQLQESGGGLVQAGGSLRLSCAASGFIFRLAGMSWVRQAPGKGFEWVSGITMDGSTTNYADSVKGRFTISRDNSKNRLYLQMNSLKPEDTAVYYCARGAKGGYNDPRGQGTQVTVS
chain 2: GPPCPPCPAPEFLGGPSVFLFPPKPKDTLMISRTPEVTCVVVDVSQEDPEVQFNWYVDGVEVHNAKTKPREEQFNSTYRVVSVLTVLHQDWLNGKEYKCKVSNKGLPSSIEKTISKAKGQPREPQVCTLPPSQEEMTKNQVSLSCAVKGFYPSDIAVEWESNGQPENNYKTTPPVLDSDGSFFLVSRLTVDKSRWQEGNVFSCSVMHEALHNHYTQKSLSLSLGKRSEVQLLESGGGLVQPGGSLRLSCAASGFTFGNYDMAWVRQAPGKRPEWVSSIDTGGDITHYADSVKGRFTISRDNAKNTLYLQMNSLRPEDTAVYWCATDEEYALGPNEFDYYGQGTLVTVSS
B3: CIgG4B3A1(G4S)1 (Fc fusion)
chain 1: GPPCPPCPAPEFLGGPSVFLFPPKPKDTLMISRTPEVTCVVVDVSQEDPEVQFNWYVDGVEVHNAKTKPREEQFNSTYRVVSVLTVLHQDWLNGKEYKCKVSNKGLPSSIEKTISKAKGQPREPQVYTLPPCQEEMTKNQVSLWCLVKGFYPSDIAVEWESNGQPENNYKTTPPVLDSDGSFFLYSRLTVDKSRWQEGNVFSCSVMHEALHNHYTQKSLSLSLGKGGGGSDVQLQESGGGLVQAGGSLRLSCAASGFIFRLAGMSWVRQAPGKGFEWVSGITMDGSTTNYADSVKGRFTISRDNSKNRLYLQMNSLKPEDTAVYYCARGAKGGYNDPRGQGTQVTVS
chain 2: GPPCPPCPAPEFLGGPSVFLFPPKPKDTLMISRTPEVTCVVVDVSQEDPEVQFNWYVDGVEVHNAKTKPREEQFNSTYRVVSVLTVLHQDWLNGKEYKCKVSNKGLPSSIEKTISKAKGQPREPQVCTLPPSQEEMTKNQVSLSCAVKGFYPSDIAVEWESNGQPENNYKTTPPVLDSDGSFFLVSRLTVDKSRWQEGNVFSCSVMHEALHNHYTQKSLSLSLGKGGGGSEVQLLESGGGLVQPGGSLRLSCAASGFTFGNYDMAWVRQAPGKRPEWVSSIDTGGDITHYADSVKGRFTISRDNAKNTLYLQMNSLRPEDTAVYWCATDEEYALGPNEFDYYGQGTLVTVSS
B4: CIgG4B3A1(G4S)2 (Fc fusion)
chain 1: GPPCPPCPAPEFLGGPSVFLFPPKPKDTLMISRTPEVTCVVVDVSQEDPEVQFNWYVDGVEVHNAKTKPREEQFNSTYRVVSVLTVLHQDWLNGKEYKCKVSNKGLPSSIEKTISKAKGQPREPQVYTLPPCQEEMTKNQVSLWCLVKGFYPSDIAVEWESNGQPENNYKTTPPVLDSDGSFFLYSRLTVDKSRWQEGNVFSCSVMHEALHNHYTQKSLSLSLGKGGGGSGGGGSDVQLQESGGGLVQAGGSLRLSCAASGFIFRLAGMSWVRQAPGKGFEWVSGITMDGSTTNYADSVKGRFTISRDNSKNRLYLQMNSLKPEDTAVYYCARGAKGGYNDPRGQGTQVTVS
chain 2: GPPCPPCPAPEFLGGPSVFLFPPKPKDTLMISRTPEVTCVVVDVSQEDPEVQFNWYVDGVEVHNAKTKPREEQFNSTYRVVSVLTVLHQDWLNGKEYKCKVSNKGLPSSIEKTISKAKGQPREPQVCTLPPSQEEMTKNQVSLSCAVKGFYPSDIAVEWESNGQPENNYKTTPPVLDSDGSFFLVSRLTVDKSRWQEGNVFSCSVMHEALHNHYTQKSLSLSLGKGGGGSGGGGSEVQLLESGGGLVQPGGSLRLSCAASGFTFGNYDMAWVRQAPGKRPEWVSSIDTGGDITHYADSVKGRFTISRDNAKNTLYLQMNSLRPEDTAVYWCATDEEYALGPNEFDYYGQGTLVTVSS
B5: CIgG4B3A1(G4S)3 (Fc fusion)
chain 1: GPPCPPCPAPEFLGGPSVFLFPPKPKDTLMISRTPEVTCVVVDVSQEDPEVQFNWYVDGVEVHNAKTKPREEQFNSTYRVVSVLTVLHQDWLNGKEYKCKVSNKGLPSSIEKTISKAKGQPREPQVYTLPPCQEEMTKNQVSLWCLVKGFYPSDIAVEWESNGQPENNYKTTPPVLDSDGSFFLYSRLTVDKSRWQEGNVFSCSVMHEALHNHYTQKSLSLSLGKGGGGSGGGGSGGGGSDVQLQESGGGLVQAGGSLRLSCAASGFIFRLAGMSWVRQAPGKGFEWVSGITMDGSTTNYADSVKGRFTISRDNSKNRLYLQMNSLKPEDTAVYYCARGAKGGYNDPRGQGTQVTVS
chain 2: B1 chain 1 with Y127C, C132S, W144S, L146A, Y185V
B6: NIgG4B3A1(RS) (Fc fusion)
chain 1: DVQLQESGGGLVQAGGSLRLSCAASGFIFRLAGMSWVRQAPGKGFEWVSGITMDGSTTNYADSVKGRFTISRDNSKNRLYLQMNSLKPEDTAVYYCARGAKGGYNDPRGQGTQVTVSRSGPPCPPCPAPEFLGGPSVFLFPPKPKDTLMISRTPEVTCVVVDVSQEDPEVQFNWYVDGVEVHNAKTKPREEQFNSTYRVVSVLTVLHQDWLNGKEYKCKVSNKGLPSSIEKTISKAKGQPREPQVYTLPPCQEEMTKNQVSLWCLVKGFYPSDIAVEWESNGQPENNYKTTPPVLDSDGSFFLYSRLTVDKSRWQEGNVFSCSVMHEALHNHYTQKSLSLSLGK
chain 2: EVQLLESGGGLVQPGGSLRLSCAASGFTFGNYDMAWVRQAPGKRPEWVSSIDTGGDITHYADSVKGRFTISRDNAKNTLYLQMNSLRPEDTAVYWCATDEEYALGPNEFDYYGQGTLVTVSSRSGPPCPPCPAPEFLGGPSVFLFPPKPKDTLMISRTPEVTCVVVDVSQEDPEVQFNWYVDGVEVHNAKTKPREEQFNSTYRVVSVLTVLHQDWLNGKEYKCKVSNKGLPSSIEKTISKAKGQPREPQVCTLPPSQEEMTKNQVSLSCAVKGFYPSDIAVEWESNGQPENNYKTTPPVLDSDGSFFLVSRLTVDKSRWQEGNVFSCSVMHEALHNHYTQKSLSLSLGK

Each binder was assayed against mixture of three Der p 2 specific recombinant human IgE clones H10, H12, P4E (human) (UniProt P01854) (assay: RBL-SX38 IgE displacement, FACS).
Sequence of mixture of three Der p 2 specific recombinant human IgE clones H10, H12, P4E (human) (P01854 other isoform, or with tags, fused parts or gaps): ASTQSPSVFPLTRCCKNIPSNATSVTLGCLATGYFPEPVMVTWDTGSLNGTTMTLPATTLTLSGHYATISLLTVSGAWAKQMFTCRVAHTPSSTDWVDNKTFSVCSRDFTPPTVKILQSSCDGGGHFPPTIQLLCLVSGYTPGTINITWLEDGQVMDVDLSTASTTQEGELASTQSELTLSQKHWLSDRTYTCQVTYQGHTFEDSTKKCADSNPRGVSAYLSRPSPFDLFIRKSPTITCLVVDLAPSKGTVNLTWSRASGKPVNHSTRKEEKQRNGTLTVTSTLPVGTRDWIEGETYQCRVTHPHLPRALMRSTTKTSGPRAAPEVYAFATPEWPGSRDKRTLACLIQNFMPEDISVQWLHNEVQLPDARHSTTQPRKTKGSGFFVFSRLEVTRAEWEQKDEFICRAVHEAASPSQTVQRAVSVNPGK

Going from B1 to B2, the Max effect/effect 1 µM falls from 10% to 1%.

Compared with B3, B4 is higher in Max effect/effect 1 µM: 12% for the first, 28% for the second.

Compared with B5, B6 is higher in Max effect/effect 1 µM: 76% for the first, 94% for the second.
